Reference: patent US6514747B2 (UT-Battelle, LLC, priority 1993, dated 2003)

Legend:
Format in all cases: cell-based
[1] = target: T1, murine MSH-R (Mus musculus, UniProt Q01727); assay: α-MSH activation of murine MSH-R in stably transfected 293 cells (adenylyl cyclase); settings: agouti 0.7 nM
T1 construct: expressed in transfected cells; host or cells: 293 cells, stably transfected

[2] = system: 3T3-L1 adipocytes; assay: [Ca2+]i in 3T3-L1 adipocytes (fura 2); settings: for [Ca2+]i Increase over Baseline: 400 s, n = 8
Protocol: The spontaneously fusing L6 skeletal muscle cells [American Type Culture Collection (ATCC), Bethesda, MD] were grown in 75-cm^2 flasks in Dulbecco's modified Eagle's medium with 10% glucose (DMEM) supplemented with 5% fetal bovine serum (FBS, vol/vol), 5% calf serum supplemented iron enriched (CS, vol/vol, and antibiotics (50 U penicillin/ml and 5 μg of streptomycin/ml). Cultures were maintained in continuous passages (<20) by trypsinization (0.05% trypsin) of semiconfluent nonfused cells. A7r5 vascular smooth muscle cells (ATCC) were grown in the same conditions as for L6 cells. 3T3-L1 cells (ATCC) were grown in 100-mm dishes in DMEM containing 10% FBS and antibiotics. For differentiation of fibroblasts into adipocytes, confluent cells were incubated in DMEM-FBS containing 0.5 mM 3-isobutyl-1-methylxanthine (IBMX; Sigma, St. Louis, Mo.) and 0.25 μM dexamethasone (Dex; Sigma) for 60 h. IBMX and Dex were then removed, and cells remained in DMEM-FBS with 250 μg/ml geneticin and compared with nontransfected HEK-293 cells. All types of cells were maintained at 37° C. in an atmosphere containing 5% CO2 and 100% humidity. Cell culture reagents, FBS, CS, and trypsin-EDTA were obtained from GIBCO/BRL (Grand Island, N.Y.).
Viruses incorporating this vector were produced by standard methods (Lu et al., 1994). Spodoptera frugiperda cells (Sf-9) were propagated in Grace's supplemented medium containing 10% CS and 0.1% Pluronic F68 and used to produce […] viral stocks. Fifteen-liter scale production runs of murine or human agouti were produced using T. ni cells adapted to suspension (JRH Biosciences, Woodland, Calif.). T ni cells were infected 24 h postseeding at a density of 10^6 cells/ml, and conditioned media from infected cells were harvested 48 h after infection filtered through a Whatman 3 filter and purified as recently described (Willard et al., 1995).
[Ca^2+]i was measured in L6, A7r5, and HEK-293 cells (Zemel et al., 1995) as previously described and in 3T3-L1 cells as described by Klip and Ramlal (1987). Monolayers of nonfused L6 cells and confluent A7r5 cells after 14-16 h of starvation in a serum-free culture medium were rinsed with Hanks' balanced salt solution (HBSS), detached by incubation in 2 ml trypsin (0.05%) for 2-3 min at 37° C., and released by pipetting without trypsinization. Cells were harvested by centrifugation at 50 g and resuspended in 1 ml HBSS at a density of ˜10^6 cells/ml. […] [Ca^2+]i levels were then measured fluorometrically in suspensions using dual excitation (340 and 380 nm)-single emission (510 nm) fluorometry as previously described (Zemel et al., 1995). [Ca^2+]i was then calculated by the computer in the fluorometer with the equation of Grynkiewicz et al. (1985). […]

[3] = target: T2, human TSH-receptor (Homo sapiens, UniProt P16473); assay: TSH-stimulated adenylyl cyclase in TSH-R-transfected 293 cells; settings: agouti 0.7 nM
T2 construct: expressed in transfected cells; host or cells: 293 (human embryonic kidney) cells
Protocol: 293 cells (5×10^5) and 293 cells expressing human TSH-R were preloaded with 5 μCi ^3H-adenine for 1.5 h at 37° C. in a 5% CO2 incubator.
Medium was aspirated and 2.5% perchloric acid containing 0.1 mM cAMP was used to stop the incubation. Adenylyl cyclase activity was calculated by determining the percent conversion of ^3H-adenine to ^3H-cAMP as described (Salomon, 1991; Johnson and Salomon, 1991). Correlation of cAMP accumulation measured in this assay with actual adenylyl cyclase activity is made under the assumption that isobutymethylxanthine effectively blocks cAMP degradation. Data represent means and standard deviations from triplicate data points.

[4] = system: 3T3-L1 adipocytes; assay: lipogenesis in 3T3-L1 adipocytes (FAS and SCD mRNA, FAS activity, triglyceride content)

T1 sequence (Q01727 whole entry): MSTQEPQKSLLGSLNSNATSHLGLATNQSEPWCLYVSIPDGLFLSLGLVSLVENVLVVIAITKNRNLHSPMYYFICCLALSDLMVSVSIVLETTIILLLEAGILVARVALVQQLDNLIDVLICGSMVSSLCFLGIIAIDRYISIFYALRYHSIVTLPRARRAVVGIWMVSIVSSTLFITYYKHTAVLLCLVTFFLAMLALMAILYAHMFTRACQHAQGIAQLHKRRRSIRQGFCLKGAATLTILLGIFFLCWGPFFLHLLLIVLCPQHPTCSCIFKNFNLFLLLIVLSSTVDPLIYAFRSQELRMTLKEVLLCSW
T2 sequence (P16473 21-764): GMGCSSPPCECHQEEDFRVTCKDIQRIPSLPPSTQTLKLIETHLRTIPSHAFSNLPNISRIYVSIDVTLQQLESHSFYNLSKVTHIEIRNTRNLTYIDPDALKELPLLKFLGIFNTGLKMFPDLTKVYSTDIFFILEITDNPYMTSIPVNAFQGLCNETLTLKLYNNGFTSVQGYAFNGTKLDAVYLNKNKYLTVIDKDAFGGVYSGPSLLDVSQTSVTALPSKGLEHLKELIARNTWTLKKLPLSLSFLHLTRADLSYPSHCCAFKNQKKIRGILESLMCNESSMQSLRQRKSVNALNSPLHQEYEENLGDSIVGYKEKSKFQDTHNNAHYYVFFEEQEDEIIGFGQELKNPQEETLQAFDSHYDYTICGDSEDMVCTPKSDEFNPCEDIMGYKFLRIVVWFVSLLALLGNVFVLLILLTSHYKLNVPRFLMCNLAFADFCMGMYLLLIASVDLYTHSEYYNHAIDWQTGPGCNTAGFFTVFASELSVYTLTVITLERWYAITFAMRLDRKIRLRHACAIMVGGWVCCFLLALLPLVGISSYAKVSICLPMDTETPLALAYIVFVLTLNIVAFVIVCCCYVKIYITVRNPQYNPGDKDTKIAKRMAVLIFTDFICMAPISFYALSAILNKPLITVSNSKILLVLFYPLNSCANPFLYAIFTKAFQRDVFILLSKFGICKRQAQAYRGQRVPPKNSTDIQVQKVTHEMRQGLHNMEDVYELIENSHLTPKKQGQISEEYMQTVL

B1: agouti: recombinant mouse agouti protein (131 amino acids, SEQ ID NO:2) produced with the baculovirus expression system in T. ni cells (protein, listed as Mus musculus)
chain: MDVTRLLLATLVSFLCFFTVHSHLALEETLGDDRSLRSNSSMNSLDFSSVSIVALNKKSKKISRKEAEKRKRSSKKKASMKKVARPPPPSPCVATRDSCKPPAPACCDPCASCQCRFFGSACTCRVLNPNC
[1]
  maximally induced activity of the receptor: did not alter
[2]; 5 nM Agouti
  [Ca2+]i Increase over Baseline: 73 ± 6 nM
[2]; 25 nM Agouti
  [Ca2+]i Increase over Baseline: 33 ± 6 nM
[2]; 50 nM agouti, 400 s after agouti addition
  [Ca2+]i increase over baseline (plateau): 73 ± 6 nM
[2]; 50 nM agouti, after 200 s
  [Ca2+]i increase: 44 ± 4 nM
[3]
  effect on ability of TSH to bind its receptor and stimulate adenylyl cyclase: no effect
[4]; 48 h treatment
  increase in FAS mRNA levels: 1.5 fold
  increase in SCD mRNA levels: 4 fold
[4]; agouti, 48 h
  cellular triglyceride content: 0.104±0.008 mg triglycerides/mg protein
